One molecule from paper doi:10.1101/2022.01.31.478465 (bioRxiv, 2022) can be followed below.

The assay concerns the target T1, AtPRP40b, recombinant (A. thaliana, UniProt F4JCC1 1-992).
T1 sequence: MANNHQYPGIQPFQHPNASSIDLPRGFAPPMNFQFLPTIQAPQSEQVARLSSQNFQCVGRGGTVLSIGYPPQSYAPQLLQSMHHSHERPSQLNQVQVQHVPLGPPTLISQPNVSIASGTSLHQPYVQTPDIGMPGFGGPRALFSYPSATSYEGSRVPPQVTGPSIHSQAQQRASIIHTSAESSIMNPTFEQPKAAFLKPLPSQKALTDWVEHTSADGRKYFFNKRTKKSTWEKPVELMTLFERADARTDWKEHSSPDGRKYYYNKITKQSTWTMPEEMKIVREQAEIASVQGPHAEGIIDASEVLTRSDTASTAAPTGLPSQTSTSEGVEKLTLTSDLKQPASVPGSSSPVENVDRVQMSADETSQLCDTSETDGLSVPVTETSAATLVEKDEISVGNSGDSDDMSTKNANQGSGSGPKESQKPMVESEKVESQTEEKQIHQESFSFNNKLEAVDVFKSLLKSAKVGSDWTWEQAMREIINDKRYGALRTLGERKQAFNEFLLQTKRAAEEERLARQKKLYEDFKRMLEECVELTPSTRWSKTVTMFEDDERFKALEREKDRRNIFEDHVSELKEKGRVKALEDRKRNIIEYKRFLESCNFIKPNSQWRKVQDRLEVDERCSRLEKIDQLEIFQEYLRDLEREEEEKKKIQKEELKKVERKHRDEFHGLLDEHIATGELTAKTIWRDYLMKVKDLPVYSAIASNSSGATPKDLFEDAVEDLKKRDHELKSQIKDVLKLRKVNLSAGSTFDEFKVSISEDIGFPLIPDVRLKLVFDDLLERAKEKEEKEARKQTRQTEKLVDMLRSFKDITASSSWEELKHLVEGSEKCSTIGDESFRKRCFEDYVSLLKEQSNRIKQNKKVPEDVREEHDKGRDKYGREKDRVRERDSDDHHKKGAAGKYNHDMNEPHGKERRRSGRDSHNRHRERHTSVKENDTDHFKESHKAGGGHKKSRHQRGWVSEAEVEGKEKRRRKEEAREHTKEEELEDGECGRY
The assay is described as follows: pull-down.

B1: SERRATE (SE), full length, recombinant (natural protein, A. thaliana, UniProt Q9ZVD0 1-720, looked up)
chain: MADVNLPPSDSVDNRLPEKSTSSSPPPPPPSSSLPQQEQEQDQQQLPLRRERDSRERRDERDIERPPPNRRERDRSPLPPPRRDYKRRPSLSPPPPYRDRRHSPPQRRSPPQKRYRRDDNGYDGRRGSPRGGYGPPDRRFGYDHGGGYDREMGGRPGYGDERPHGRFMGRYQDWEGGRGGYGDASNSGNPQRDGLMSYKQFIQELEDDILPSEAERRYQEYKSEYITTQKRAFFNTHKEEDWLKNKYHPTNLLSVIERRNDLAQKVAKDFLLDLQSGTLDLGPAVTALNKSGRTSEPNSEDEAAGVGKRKRHGMGGAKENELLSAAPKAPSFTSDPKRILTDVEQTQALVRKLDSEKKIEENVLQGSETEKSGREKLHSGSTGPVVIIRGLTSVKGLEGVELLDTLVTYLWRVHGLDYYGKVETNEAKGLRHVRAEGKVSDAKGDENESKFDSHWQERLKGQDPLEVMAAKEKIDAAATEALDPHVRKIRDEKYGWKYGCGAKGCTKLFHAAEFVYKHLKLKHTELVTELTTKVREELYFQNYMNDPNAPGGQPATQQSGPRDRPIRRKPSMENRLRDDRGGRRERDGRANGNDRNDRSEDQQRGDNDGGNPGEVGYDAFGGQGGVHVPPFLSDINPPPMLMPVPGAGPLGPFVPAPPEVAMQMFRDPSGPNPPFEGSGRGGPAPFLLSPAFRQDPRRLRSYQDLDAPEEEVTVIDYRSL
In the case of B1, the binding result is recorded as “binds”.
